According to publication PMC12424427:

Target: AGO2 (UniProt Q9UKV8)
Assay: MST
Conditions: MST: labeled protein 5-150 nM, ligand 1E-10 to 1E-5 M, 5-15 min, buffer and temperature not stated, pull-down: 150 mM NaCl, 50 mM Tris pH 7.4, 1% Triton X-100 …

Sequence of AGO2 (Q9UKV8 whole entry): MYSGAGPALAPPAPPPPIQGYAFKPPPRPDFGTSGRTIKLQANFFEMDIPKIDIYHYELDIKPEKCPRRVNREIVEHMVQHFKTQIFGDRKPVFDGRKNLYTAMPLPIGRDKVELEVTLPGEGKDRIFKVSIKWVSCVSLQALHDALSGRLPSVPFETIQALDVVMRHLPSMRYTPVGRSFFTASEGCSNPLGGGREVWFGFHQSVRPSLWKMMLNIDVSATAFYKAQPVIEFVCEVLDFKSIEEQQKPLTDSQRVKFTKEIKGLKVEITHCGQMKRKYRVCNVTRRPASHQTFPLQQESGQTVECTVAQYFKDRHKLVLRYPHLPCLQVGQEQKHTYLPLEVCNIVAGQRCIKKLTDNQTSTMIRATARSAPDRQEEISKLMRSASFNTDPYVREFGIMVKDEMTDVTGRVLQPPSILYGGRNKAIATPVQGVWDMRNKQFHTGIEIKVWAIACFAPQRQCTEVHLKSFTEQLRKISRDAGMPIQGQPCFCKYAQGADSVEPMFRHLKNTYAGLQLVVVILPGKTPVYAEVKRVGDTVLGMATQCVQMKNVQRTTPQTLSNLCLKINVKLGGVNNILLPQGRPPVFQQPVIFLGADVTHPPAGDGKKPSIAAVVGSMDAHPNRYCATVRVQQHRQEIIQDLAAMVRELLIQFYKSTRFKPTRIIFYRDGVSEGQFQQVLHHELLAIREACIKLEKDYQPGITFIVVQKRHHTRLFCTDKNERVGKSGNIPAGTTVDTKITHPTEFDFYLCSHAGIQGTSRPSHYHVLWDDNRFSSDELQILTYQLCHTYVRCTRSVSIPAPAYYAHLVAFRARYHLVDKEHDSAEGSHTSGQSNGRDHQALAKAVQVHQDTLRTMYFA

5'ppp-dsRNA Control (dsRNA control)
Kd (no 5'-triphosphate): 2200 nM

5'ppp-dsRNA
Kd (5'-triphosphate): 2200 nM

3p-hpRNA (5'ppp hairpin RNA)
Kd (no competitor, 5'-triphosphate): 205 nM
